Assay results as given in publication PMC7337494 (The Journal of Cell Biology, 2020).

Target: the molecule itself
Assay: AUC

B1: 217-MGD (extended OPA1-MGD, residues 217–580 and 938–960 connected by the artificial linker) (domain or fragment)
chain: not shown
With B1 the “stoichiometry N” value was 2.
